# Assay results as given in patent US7531516B2, “Peptidic compounds selectively binding to P-selectin” (Astellas Pharma Europe B.V., priority 2001, dated 2009).
# Positions of bridges follow the written chain, without caps; N, C: chain ends. Residues, ends and D or L forms follow the SMILES beside them. No end group written: not given here. *: point of attachment. Biotin = O=C1N[C@H]2[C@H](CS[C@H]2CCCCC(=O)*)N1; Ahx = NCCCCCC(=O)O
# B1: Biotin-TM1 (peptide)
# peptide: {Biotin-Ahx}-CPEFVDVEGDPGALLAC
# modifications: cysteine pairing not given here
# notes: Linear compounds were tested in the presence of DTT
# B2: DVEAVDVS (peptide)
# peptide: {Biotin-Ahx}-DVEAVDVS
# notes: Comparative compound
# B3: DVEWADVS (peptide)
# peptide: {Biotin-Ahx}-DVEWADVS
# notes: Comparative compound
# B4: DVEWVAVS (peptide)
# peptide: {Biotin-Ahx}-DVEWVAVS
# notes: Comparative compound
# B5: DVEWVDAS (peptide)
# peptide: {Biotin-Ahx}-DVEWVDAS
# notes: Comparative compound
# B6: Biotin-A17 (peptide)
# peptide: {Biotin-Ahx}-CDVEWVDVSC
# modifications: cysteine pairing not given here
# notes: Only TM11 is said to have been prepared in a cyclized form as well
# B7: Biotin-TM11(cyclic) (peptide)
# peptide: {Biotin-Ahx}-CDVEWVDVSSLEWDLPC
# modifications: disulfide 1-17
# B8: Biotin-TM2 (peptide)
# peptide: {Biotin-Ahx}-CGWVDVIASGDTATLAC
# modifications: cysteine pairing not given here
# notes: as for B1
# B9: Biotin-TM16 (peptide)
# peptide: {Biotin-Ahx}-CPDWVDVFKLVEGVMLC
# modifications: cysteine pairing not given here
# notes: as for B1
# B10: Biotin-SH31 (peptide)
# peptide: {Biotin-Ahx}-VGLDPRDWVDVSDYA
# B11: EWVKVA (peptide)
# peptide: {Biotin-Ahx}-EWVKVA
# notes: Comparative compound
# Experiments:
# [1] = biological target: T1, human p-selectin (Homo sapiens, UniProt P16109); assay: Competition ELISA: displacement of TM11-strepPO complex from coated chimeric human P-selectin; assay type: binding; details: competition with 2.5 nM TM11-strepPO, 1 hour at 4° C.; linear compounds in the presence of DTT; read-out: Affinity (affinity constant)
# T1 sequence (P16109 42-830): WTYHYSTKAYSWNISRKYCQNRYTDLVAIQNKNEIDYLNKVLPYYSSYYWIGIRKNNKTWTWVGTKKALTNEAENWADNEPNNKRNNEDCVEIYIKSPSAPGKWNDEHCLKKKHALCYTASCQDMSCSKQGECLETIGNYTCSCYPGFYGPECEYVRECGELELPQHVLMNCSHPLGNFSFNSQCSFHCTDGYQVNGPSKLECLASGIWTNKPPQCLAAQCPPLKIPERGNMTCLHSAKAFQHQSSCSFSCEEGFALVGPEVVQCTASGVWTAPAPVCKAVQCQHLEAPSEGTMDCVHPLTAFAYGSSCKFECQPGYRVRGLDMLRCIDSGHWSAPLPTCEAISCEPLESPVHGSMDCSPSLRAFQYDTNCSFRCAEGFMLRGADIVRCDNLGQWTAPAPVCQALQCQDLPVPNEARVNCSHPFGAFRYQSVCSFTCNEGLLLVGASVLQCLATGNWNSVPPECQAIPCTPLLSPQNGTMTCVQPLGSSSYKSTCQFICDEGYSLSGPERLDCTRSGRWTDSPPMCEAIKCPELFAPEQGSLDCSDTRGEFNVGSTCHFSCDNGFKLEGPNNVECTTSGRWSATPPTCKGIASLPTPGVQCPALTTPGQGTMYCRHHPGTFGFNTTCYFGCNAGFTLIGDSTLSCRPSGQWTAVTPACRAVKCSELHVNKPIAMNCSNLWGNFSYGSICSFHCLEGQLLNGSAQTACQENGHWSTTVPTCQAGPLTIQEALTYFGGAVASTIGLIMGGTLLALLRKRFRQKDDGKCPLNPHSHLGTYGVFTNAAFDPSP
# Protocol: The affinity of the compounds to P-selectin was investigated by using an adapted ELISA method. Streptavidin-horseradishperoxidase (strepPO) was incubated with TM11-biotin in a 1 to 4 molar ratio for 2 hours at RT, hereby forming a tetrameric peptide strepPO-complex. For competition studies, microtiter wells were coated with chimeric human p-selectin as described for the isolation of p-selectin binding phage. Wells were then incubated with 2.5 nM TM11-strepPO complex in assay buffer for 1 hour at 4° C., in the presence of titered amounts of peptides to compete for binding to human p-selectin. Linear compounds were tested in the presence of DTT to prevent aggregate formation. After washing 6 times with assay buffer, the wells were incubated with 100 μl TMB/H2O2 for 15 min at RT. The reaction was stopped with 1 M H2SO4 and the absorbance read at 450 nm. From the results, the affinity constants were calculated: […]
# [2] = system: Human platelets; assay: Inhibition of platelet aggregation; assay type: cell-based; details: human platelets activated by ADV
# Protocol: Human platelets were activated by ADV, and the extent of platelet aggregation was measured in the presence or absence of EWVDV (SEQ ID No: 19)-containing peptides.
# [3] = system: human P-selectin-IgG; assay: Binding of [3H]-cholesterol labeled sulfatide liposomes to human P-selectin-IgG; details: liposomes carrying 22% of sulfatides, 2 hours at 4° C.
# Protocol: Liposomes were prepared by sonication from egg yolk phosphatidylcholine, cholesterol, and sulfatides, all dissolved in chloroform/methanol (1:1, v/v), at weight ratios of 4:0.8:1.33. A tracer amount of [^3H]-cholesterol (1.3×10^8 dpm) was added, and the mixture was dried under a stream of nitrogen. The resulting lipid layer was vortexed in PBS and subsequently sonicated, resulting in liposomes with mean particle diameters of 59-62 nm.
# Fc-specific goat anti-human IgG in coating buffer (50 mM NaHCO3, pH 9.6) was incubated in a high binding 96 well plate. The next day, wells were washed with assay buffer (20 mM HEPES, 150 mM NaCl, 1 mM CaCl2, pH 7.4) and incubated with blocking buffer (3% BSA in assay buffer). After washing, wells were incubated with human P-selectin-IgG, washed, and subsequently incubated with the [^3H]-cholesterol labeled liposomes in the presence or absence of the compounds below and antibodies for 2 hours at 4° C. After removal of unbound liposomes, bound liposomes were collected and counted using a scintillation counter.
# [4] = biological target: T2, chimeric human p-selectin (human, UniProt P16109 42-321); assay: competition ELISA; coated chimeric human P-selectin, competitor 2.5 nM TM11-strepPO complex; column head 'Affinity'
# T2 construct: also called human P-selectin-IgG
# T2 sequence (looked up): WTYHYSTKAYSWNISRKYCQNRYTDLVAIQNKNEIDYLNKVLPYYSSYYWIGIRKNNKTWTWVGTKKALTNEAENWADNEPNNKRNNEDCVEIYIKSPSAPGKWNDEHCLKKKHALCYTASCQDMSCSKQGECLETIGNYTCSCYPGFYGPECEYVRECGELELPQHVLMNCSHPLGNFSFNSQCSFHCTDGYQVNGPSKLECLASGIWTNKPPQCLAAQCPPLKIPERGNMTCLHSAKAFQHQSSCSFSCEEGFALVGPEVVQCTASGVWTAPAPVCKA
# Protocol: (§1) Linear compounds were tested in the presence of DTT to prevent aggregate formation. After washing 6 times with assay buffer, the wells were incubated with 100 μl TMB/H_2O_2 for 15 min at RT. The reaction was stopped with 1 M H_2SO_4 and the absorbance read at 450 nm. From the results, the affinity constants were calculated: […]
# [5] = biological target: T2, chimeric human p-selectin; assay: affinity to human P-selectin, prepared and tested as in example 1 (competition ELISA against TM11-strepPO complex); column head 'Affinity [µM]'
# Protocol: as §1
molecule,measurement,setting,value
CC(C)[C@H](NC(=O)[C@H](CC(=O)O)NC(=O)[C@@H](NC(=O)[C@H](Cc1c[nH]c2ccccc12)NC(=O)[C@H](CCC(=O)O)NC(=O)[C@@H](NC(=O)[C@H](CC(=O)O)NC(=O)CCCCCNC(=O)CCCC[C@@H]1SC[C@@H]2NC(=O)N[C@@H]21)C(C)C)C(C)C)C(=O)N[C@@H](CO)C(=O)O [Biotin-A19] ({Biotin-Ahx}-DVEWVDVS-OH),IC50,[1],12000 nM
CC(C)C[C@@H]1NC(=O)[C@H](CO)NC(=O)[C@H](CO)NC(=O)[C@H](C(C)C)NC(=O)[C@H](CC(=O)O)NC(=O)[C@H](C(C)C)NC(=O)[C@H](Cc2c[nH]c3ccccc23)NC(=O)[C@H](CCC(=O)O)NC(=O)[C@H](C(C)C)NC(=O)[C@H](CC(=O)O)NC(=O)[C@@H](NC(=O)CCCCCNC(=O)CCCC[C@@H]2SC[C@@H]3NC(=O)N[C@@H]32)CSSC[C@@H](C(=O)O)NC(=O)[C@@H]2CCCN2C(=O)[C@H](CC(C)C)NC(=O)[C@H](CC(=O)O)NC(=O)[C@H](Cc2c[nH]c3ccccc23)NC(=O)[C@H](CCC(=O)O)NC1=O [Biotin-TM11(cyclic)] ({Biotin-Ahx}-CDVEWVDVSSLEWDLPC-OH; disulfide 1-17),IC50,[1],2000 nM
CC(C)C[C@H](NC(=O)[C@H](CO)NC(=O)[C@H](CO)NC(=O)[C@@H](NC(=O)[C@H](CC(=O)O)NC(=O)[C@@H](NC(=O)[C@H](Cc1c[nH]c2ccccc12)NC(=O)[C@H](CCC(=O)O)NC(=O)[C@@H](NC(=O)[C@H](CC(=O)O)NC(=O)[C@H](CS)NC(=O)CCCCCNC(=O)CCCC[C@@H]1SC[C@@H]2NC(=O)N[C@@H]21)C(C)C)C(C)C)C(C)C)C(=O)N[C@@H](CCC(=O)O)C(=O)N[C@@H](Cc1c[nH]c2ccccc12)C(=O)N[C@@H](CC(=O)O)C(=O)N[C@@H](CC(C)C)C(=O)N1CCC[C@H]1C(=O)N[C@@H](CS)C(=O)O [Biotin-TM11] ({Biotin-Ahx}-CDVEWVDVSSLEWDLPC-OH),IC50,[1],2000 nM
C D V E W V D V S C (CDVEWVDVSC) [A17],aggregation reduced (second phase of platelet aggregation),[2],~25%
same,inhibition of the binding of sulfatides to P-selectin,[3],significantly inhibited
D V E W V D V A (DVEWVDVA) [A27],inhibition of the binding of sulfatides to P-selectin,[3],significantly inhibited
D V E W V D V S (DVEWVDVS) [A19],aggregation reduced (second phase of platelet aggregation),[2],about 45%
same,inhibition of the binding of sulfatides to P-selectin,[3],significantly inhibited
"DVEAVDVS [D V E A V D V S, reference compound]",inhibition of the binding of sulfatides to P-selectin,[3],did not
EWVDV [core motif peptide],inhibition of the binding of sulfatides to P-selectin,[3],did not
B1,IC50,[4],82 µM
B2,IC50,[5],400 mM
B3,IC50,[5],1.4 mM
B4,IC50,[5],21 mM
B5,IC50,[5],13 mM
B6,IC50,[4],0.1 µM
B7,IC50,[4],2 µM
B8,IC50,[4],49 µM
B9,IC50,[4],12 µM
B10,IC50,[4],19 µM
B11,IC50,[5],13 mM
